This data set in a line: eIF4E2 co-IP, 4E-T and GIGYF2 immunoblot. Conditions: glycan lost; control: MEST cDNA (wild type).

We go through 1 protein from publication PMC10556033.

B1: mesoderm-specific transcript (MEST), also named PEG1: MEST N163Q (protein)
parent chain: MVRRDRLRRMREWWVQVGLLAVPLLAAYLHIPPPQLSPALHSWKSSGKFFTYKGLRIFYQDSVGVVGSPEIVVLLHGFPTSSYDWYKIWEGLTLRFHRVIALDFLGFGFSDKPRPHHYSIFEQASIVEALLRHLGLQNRRINLLSHDYGDIVAQELLYRYKQNRSGRLTIKSLCLSNGGIFPETHRPLLLQKLLKDGGVLSPILTRLMNFFVFSRGLTPVFGPYTRPSESELWDMWAGIRNNDGNLVIDSLLQYINQRKKFRRRWVGALASVTIPIHFIYGPLDPVNPYPEFLELYRKTLPRSTVSILDDHISHYPQLEDPMGFLNAYMGFINSF
Regarding B1, the “other: eIF4E2-4E-T/GIGYF2 complex formation in cells” value is given as “increases”.
